Our source for the binding result and IC50 values is patent publication US20240076386A1 (Pfizer, published 2024).

The target in test [1] is T1, human P-selectin expressed on CHO cells (human, UniProt P16109 42-830).
T1 construct: whole, on cells; also called CHO-human P-selectin cells; CHO-P-selectin cells
T1 sequence (looked up): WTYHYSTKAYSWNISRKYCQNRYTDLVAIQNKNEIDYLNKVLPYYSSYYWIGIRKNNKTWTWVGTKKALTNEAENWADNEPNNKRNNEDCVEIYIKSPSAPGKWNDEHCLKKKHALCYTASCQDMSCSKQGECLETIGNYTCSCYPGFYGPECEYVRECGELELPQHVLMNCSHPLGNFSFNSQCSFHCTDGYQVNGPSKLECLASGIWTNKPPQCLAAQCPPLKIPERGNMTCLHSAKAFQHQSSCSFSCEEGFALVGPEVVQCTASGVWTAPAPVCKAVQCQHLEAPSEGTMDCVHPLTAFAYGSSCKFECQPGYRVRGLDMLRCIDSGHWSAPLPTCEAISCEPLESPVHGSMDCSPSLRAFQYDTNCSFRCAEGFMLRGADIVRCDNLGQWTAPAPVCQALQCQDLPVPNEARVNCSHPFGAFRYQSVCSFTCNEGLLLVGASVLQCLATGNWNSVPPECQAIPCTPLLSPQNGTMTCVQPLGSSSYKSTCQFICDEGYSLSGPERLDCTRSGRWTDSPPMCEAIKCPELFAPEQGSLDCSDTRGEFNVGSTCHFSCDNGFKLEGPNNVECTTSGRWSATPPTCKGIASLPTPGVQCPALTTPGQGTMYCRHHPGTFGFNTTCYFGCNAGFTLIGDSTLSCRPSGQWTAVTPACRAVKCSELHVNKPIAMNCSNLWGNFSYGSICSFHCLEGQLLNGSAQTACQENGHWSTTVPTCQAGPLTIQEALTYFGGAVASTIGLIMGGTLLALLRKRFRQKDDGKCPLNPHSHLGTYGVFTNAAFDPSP
Description: flow cytometry, CHO human P-selectin cells. For orientation: A flow cytometer gives signals particle by particle.

For test [2], the target named is T2, human E-selectin, cell-surface expressed (human, UniProt P16581 22-610).
T2 construct: also called CHO-human E-selectin cells; human CHO-E
T2 sequence: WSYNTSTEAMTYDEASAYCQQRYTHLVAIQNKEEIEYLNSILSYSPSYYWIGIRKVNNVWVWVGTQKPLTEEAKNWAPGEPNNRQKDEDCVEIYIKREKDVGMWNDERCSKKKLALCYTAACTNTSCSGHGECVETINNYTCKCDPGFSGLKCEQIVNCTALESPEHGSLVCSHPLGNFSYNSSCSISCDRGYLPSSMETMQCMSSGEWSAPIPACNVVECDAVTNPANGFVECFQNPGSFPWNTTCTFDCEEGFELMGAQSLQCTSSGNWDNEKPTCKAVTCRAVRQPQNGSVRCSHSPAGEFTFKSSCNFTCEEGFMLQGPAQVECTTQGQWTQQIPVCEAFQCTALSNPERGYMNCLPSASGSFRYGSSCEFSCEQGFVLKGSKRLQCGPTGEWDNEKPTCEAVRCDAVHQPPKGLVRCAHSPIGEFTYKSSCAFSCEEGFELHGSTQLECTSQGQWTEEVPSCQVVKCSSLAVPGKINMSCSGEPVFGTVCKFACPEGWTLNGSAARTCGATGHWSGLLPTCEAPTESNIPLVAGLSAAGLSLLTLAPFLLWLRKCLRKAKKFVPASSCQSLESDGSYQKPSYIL
Nature of the test: neutralization of sialyl Lewis A ligand binding, CHO cells, competition ELISA. The protocol: (§1) In a static ligand cellular adhesion assay, horse radish peroxidase (HRP) conjugated E-selectin ligand (sialyl Lewis antigen) and E-selectin antibodies compete for binding to human or cynomolgus E-selectin expressed on Chinese hamster ovary (CHO) cells. The ability of anti-E-selectin antibodies to neutralize ligand binding was assessed in a static neutralization assay using a competition enzyme-linked immunosorbent assay (ELISA) to evaluate the neutralization of the sialyl Lewis antigen to Chinese hamster ovary cells (CHO) engineered to express human or cynomolgus monkey E-selectin.
(§2) CHO cells expressing E-selectin were seeded at 12,500 cells per well into a 96 well tissue culture plate and incubated at 37° C., 5% CO₂ for 48 hours to form a confluent monolayer. Plates were subsequently washed twice with 200 μL of calcium magnesium free PBS. Anti-E-selectin antibodies or an IgG1 isotype control (IgG control) were added to the assay in the presence of a small synthetic conjugate of biotinylated, sialyl Lewis A polyacrylamide (Carbosynth LLC, OS45446) or sialyl Lewis X polyacrylamide (Glycotech, 01-045) with streptavidin/horseradish peroxidase (100 μL total) and incubated at 37° C., 5% CO₂ for 2 hours. […] Reactions were stopped using 2 M of sulfuric acid and absorbance was read at 450 nm (Spectramax M5e). Data were analyzed and graphed using GraphPad Prism software (Version 8.0.2).
A general note: In an ELISA, binding on a coated surface is turned into a signal by an enzyme label.

Test [3] deals with T3, cynomolgus monkey E-selectin, cell-surface expressed (cynomolgus monkey, UniProt P16581 22-610 (human entry)).
T3 construct: also called CHO-cynomolgus monkey E-selectin cells; cynomolgus monkey CHO-E
T3 chain: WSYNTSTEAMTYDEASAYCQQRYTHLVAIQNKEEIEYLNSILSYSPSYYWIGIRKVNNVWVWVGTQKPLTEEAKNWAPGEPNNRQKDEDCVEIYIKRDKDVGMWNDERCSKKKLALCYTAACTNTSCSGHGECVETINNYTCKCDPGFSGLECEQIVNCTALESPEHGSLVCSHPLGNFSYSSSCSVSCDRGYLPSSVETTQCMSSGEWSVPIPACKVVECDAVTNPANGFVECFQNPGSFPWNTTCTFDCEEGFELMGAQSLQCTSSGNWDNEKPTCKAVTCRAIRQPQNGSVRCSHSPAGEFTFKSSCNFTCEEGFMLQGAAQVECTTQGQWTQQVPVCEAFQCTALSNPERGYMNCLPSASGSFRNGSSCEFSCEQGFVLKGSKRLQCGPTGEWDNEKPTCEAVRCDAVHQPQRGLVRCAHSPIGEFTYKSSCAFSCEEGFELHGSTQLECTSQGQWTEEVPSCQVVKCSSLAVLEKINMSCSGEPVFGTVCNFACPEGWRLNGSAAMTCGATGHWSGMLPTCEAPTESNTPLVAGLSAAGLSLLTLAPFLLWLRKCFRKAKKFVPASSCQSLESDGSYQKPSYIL
Described as above. The procedure:
as §1, §2

B1: optimized anti-E-selectin antibody 1444 (antibody, human IgG1, kappa, V domains shown)
VH: EVQLVESGGGLVQPGGSLRLSCAASGYAIRSAYMHWVRQAPGKGLEWVARIDPANGNTIYVDSVTGRFTISADNAKNSAYLQMNSLRAEDTAVYYCAMDLYSTSEYWGQGTLVTVSS
VL: DIQMTQSPSSLSASVGDRVTITCKTSQNIERYLNWYQQKPGKAPKLLIYAASSLQSGVPSRFSGSGSGTDFTLTISSLQPEDFATYFCLQDNAWPLTFGQGTKVEIKR
notes: effector-null human IgG1, kappa
As to B1, the binding result in test [1] was “no binding”. For the same molecule, the IC50 was 1.88 to 2.89 nM in test [2] and 1.47 to 2.65 nM in test [3].

For orientation: IC50 means the concentration that gives 50% inhibition.
